In paper PMC9307002, “Carboxyl Methyltransferase Catalysed Formation of Mono‐ and Dimethyl Esters under Aqueous Conditions: Application in Cascade Biocatalysis” (Angewandte Chemie (International Ed. in English), 2022):

Tests used:
Assay in all cases: methyltransferase kinetics
Type in all cases: biochemical, Aspergillus fumigatus
Settings in all cases: methyl donor SAM
[1] = substrate: O=C(O)c1ccc(C(=O)O)o1
[2] = substrate: COC(=O)c1ccc(C(=O)O)o1
[3] = substrate: O=C(O)/C=C/C(=O)N[C@@H](Cc1ccc(O)cc1)C(=O)O
[4] = substrate: COC(=O)c1ccc(C(=O)O)cc1
[5] = substrate: O=C(O)c1ccc(C(=O)O)cc1

B1: FtpM (Aspergillus fumigatus Af293) (protein)
chain: MTQSNGNAVSSASDPYRLNRNIAASTRLSLQHYIWKENMGYLLHPSIDVSRPDLAIADVGTGTAIWILDLLRQLPNAKFHGFDISSEQYPAPGFLPPNVSLSKLDILGEIPEEYREKFDVVHARLLVQVVNQAGSDPVPVIRNMMKLLKPGGYLQWEEPNDDASKRPIVKADPANSSENAEKLLQRLDARFRAATPASWSVALAETFKEQGLQNVVREEFSTDTYLLLLDQTNYLGLFGELISKLDGDLKEELTQLHANTVAEARKGLSWKVRRFAFLGQKP
notes: recombinant, C-terminal His-tag; dimer (modelled)
- Km [1]: 0.52 mM
- kcat [1]: 0.02 min⁻¹
- Km [2]: 1.4 mM
- kcat [2]: 0.005 min⁻¹
- Km [3]: 0.68 mM
- kcat [3]: 0.063 min⁻¹
- Km [4]: 1.51 mM
- kcat [4]: 0.0049 min⁻¹
- Km [5]: 0.072 mM
- kcat [5]: 0.89 min⁻¹
